Assay results published in patent publication US20230382979A1 (ADAPTIVE BIOTECHNOLOGIES, published 2023).

Assays:
[1] = target: T1, Receptor-binding domain (RBD) of the SARS-CoV-2 spike protein, WA01/2020 strain (SARS-CoV-2, WA01/2020 strain, UniProt P0DTC2 319-541); test: SPR (Biacore 8K), antigen immobilized, antibody injected
[2] = target: T2, SARS-CoV-2 spike protein on live virus, strain USA-WA1/2020 (SARS-CoV-2, WA01/2020 strain, UniProt P0DTC2 14-1273); test: cell-based or functional assay
[3] = target: SARS-CoV-2 spike protein, B1.351 (beta variant), borne on lentiviral pseudovirus (SARS-CoV-2, B1.351); test: cell-based or functional assay
[4] = target: SARS-CoV-2 spike protein, B1.1.7 (alpha variant), borne on lentiviral pseudovirus (SARS-CoV-2, B1.1.7); test: cell-based or functional assay
[5] = target: T1, Receptor-binding domain (RBD) of the …; test: ELISA, antibody blocks RBD binding to human ACE2
[6] = target: T1, Receptor-binding domain (RBD) of the …; test: dose-response ELISA on coated antigen
[7] = target: T2, SARS-CoV-2 spike protein on live virus, …; test: cell-based or functional assay; remark: listed apart in the source
[8] = target: SARS-CoV-2 spike protein on live virus, B1.351 (beta variant) (SARS-CoV-2, B1.351); test: cell-based or functional assay
[9] = target: T1, Receptor-binding domain (RBD) of the …; test: ELISA, antibody at 0.1 ug/mL

Binder	Kd [1] [nM]	IC50, live virus micro-neutralization WA1/2020 [2] [nM]	Pseudo Neut, B1.351 IC50 (pM) [3] [pM]	Pseudo Neut, B1.1.7 IC50 (pM) [4] [pM]	IC50 [5] [nM]	EC50 [6] [nM]	Live Neut, WA1/2020 IC50 (pM) [7] [pM]	Live Neut, B1.351 IC50 (pM) [8] [pM]	binding result [9]
antibody 4042 (antibody, V domains shown) VH: QITLKESGPTLVKPTQTLTLTCTFSGFSLSSGGVGVGWIRQPPGKALEWLALIYWDDDKRYRPSLKSRLTITRDTSTNQVVLTMTNMDPVDTATYFCARHQIATVFDHWGQGTLVTVSS VL: QSALTQPASVSGSPGQSITISCTGTSSDVGGYNYVSWYQQHPGKAPKLMIYEVSNRPSGVSSRFSGSKSGNTASLTISGLQAEDEADYYCSSYTRSSPLVAFGGGTKVTVL	0.036	0.039	948	200	1.09	0.021	15	140	
antibody 2892 (antibody, V domains shown) VH: QVQLVQSGAEVKKPGSSVKVSCKASGDAFISYAISWVRQAPGQGLEWMGGIIPIFGTANYAQKFQGRVTISADESTSTAYMELSRLRSEDTAVYYCARGGPEPYGSGSGYTPRYNWFDPWGQGTLVTVSS VL: QSALTQPRSVSGSPGQSVTISCTGTSSDVGGYNYVSWYQQHPGKAPKFMIYDVNRRPSGVPDRFSGSKSGNTASLTISGLQAEDEADYYCCSYAGTYTWVFGGGTKLTVL	0.005	0.082	125	~13	0.762	0.089	10	403	
antibody 3086 (antibody, V domains shown) VH: QVQLQESGPGLVKPSETLSLTCTVSGGSISGHYWSWIRQPPGKGLEWIGYIYYSGSTNYNPSLKSRVTISVDTSVNQFSLKLSSVTAADTAVYYCARQEARDAVGNYFFDSWGQGTLVTVSS VL: QSALTQPASVSGSPGQSITISCSGTSSDIGSYDLVSWYQQHPGKAPKLLIYDVTKRPSGVSHRFSGSKSGNTASLTISGLQGEDEADYYCCSYVHFSTWVFGGGTKLTVL	0.242	0.062	115	71	0.562	0.03	7	210	
antibody 980 (antibody, V domains shown) VH: QVQLVESGGGVVQPGRSLRLSCAASGFTFSRYGMHWVRQAPGKGLEWVALISSGGSNKYYADSVKGRFTISRDNSKNTLYLEMNSLRAEDTAVYYCAKDAIYDYIWGAYRENWFDPWGQGTLVTVSS VL: DIQMTQSPSSLSASVGDRVTITCRASQSISNYLNWYQQKPGKAPNLLIYAASSLQSGVPSRFSGSGSGTDFTLTISSLQPEDFATYYCQQTSSPPLTFGQGTKVEIK	0.87	0.0082	1740	1670	0.86	0.023	25	83	
antibody 1238 (antibody, V domains shown) VH: QVQLVQSGSELKKPGASVKVSCKASGYTFTNYGMNWVRQAPGQGLEWMGWINTNTGNPTNAQGFTGRFVFSLDTSVSTAYLQINSLKGEDTAVYYCARVADTGEMDVWGQGTTVTVSS VL: SYELTQPPSVSVSPGQTARITCSGDALPKQYAYWYQQKPGQAPVLVIYKDSERPSGIPERFSGSSSGTTVTLTISGVQAEDEADYYCQSADSSGSYNWVFGGGTKLTIL							400		no binding (tested: 0.1 ug/mL)
antibody 2019 (antibody, V domains shown) VH: QVQLVESGGGVVQPGGSLSLSCAASGLSFSSYGMHWVRQAPGKGLEWVAFIRYDVSNKYYADSVKGRFTISRDNSKNTLYLQMNSLRVEDTAVYYCATWAPLDDGMDVWGQGTTVTVSS VL: SYELTQPPSVSVSPGQTARITCSGDALPKQYAYWYQQKPGQAPVLVIYKDTERPSGIPERFSGSSSGTTVTLTISGVQAEDEADYYCQSGDSSGTFYVVFGGGTKLTVL							107		no binding (tested: 0.1 ug/mL)
antibody 2024 (antibody, V domains shown) VH: QVQLVQSGAEVKKPGASVKVSCKVSGYTLIELSMHWVRQAPGKGLEWMGGFDPEEGETIYAQKFQGRVTMTEDTSTDTAYMELSSLRSEDTAVYYCTTSPPVGATGAWFDPWGQGTLVTVSA VL: SYVLTQPPSVSVAPGKTARITCGGNNIGSKSVHWYQQKPGQAPVLVVYDDSDRPSGIPERFSGSNSGNTATLTISGLQAEDEADYYCSSYTSSSTVVFGGGTKLTVL							95		no binding (tested: 0.1 ug/mL)
antibody 2564 (antibody, V domains shown) VH: QVQLVQSGAEVKKPGSSVRVSCKASGGTFISYTFNWVRQAPGQGLEWMGRIIPIFGIVNYAQKFQGRVTIAADKSTSTAYMELSSLRSEDTAMYYCATATVDYDSGEEQSSFDPWGQGTLVTVSS VL: EIVLTQSPGTLSLSPGERATLSCRASQSVSSSYLAWYQQKAGQTPRLLIYAASSRATGVPDRFSGSGSGTDFTLTISRLEAEDFAVYYCQQSWTFGQGTKVEIK	0.012	0.0226	196	33	0.776	0.023	7	121	
antibody 2788 (antibody, V domains shown) VH: QVQLVQSGAEVKKPGASVKVSCKVSGYTLIELSMHWVRQAPGKGLEWMGGFDPEGAETIYAQKFQGRVTMTEDTSTDTAYMELSSLRSDDTAVYYCATGPAVFAANWFDPWGQGTLVTVSS VL: QSALTQPPSASGSPGQSVTISCTGTSSDIGNYNNVSWYQQHPGKAPKLMIYDVIKRPSGVPDRFSGSKSGNTASLTVSGLQAEDEADYYCSSYAGKSYVFGTGTKVTVL							117		no binding (tested: 0.1 ug/mL)
antibody 2793 (antibody, V domains shown) VH: QVQLVQSGAEVKKPGASVKVSCKVSGFTLPELSIHWVRQAPGKGLEWMGGFDPEDAKTIYAQKFQGRVTMTEDTSTDIAYMELNSLRSDDTAVYYCATGSPFGVVGNWLDPWGQGTLVTVSS VL: QSALTQPASVSGSPGQSITISCTGTSSDVGDFSYVSWYQQHPGKAPKLMIYEVTKRPSGVSNRFSGSKSGNTASLTISGLQTEDEADYYCTSYTSSRLVLFGGGTKLTVL							77		no binding (tested: 0.1 ug/mL)
antibody 2854 (antibody, V domains shown) VH: QVQLVQSGAEVKKPGSSVKVSCKASGGTFSSYAISWVRQAPGQGLEWMGGIIPIFHTANYAQKFQGRVTITADESTSTTYVELSSLRSEDTAMYYCATLPITIFGEEYSFDNWGQGTLVTVSS VL: DVVMTQSPLSLPVTLGQPASISCRSSQSLVHSDGNTYLSWFQQRPGQSPRRLIYKVSDRDSGVPDRFSGSGSGTDFTLKISRVEAEDVGIYYCMQGTHWPPLTFGGGTKVEIK							164		no binding (tested: 0.1 ug/mL)
antibody 2866 (antibody, V domains shown) VH: QVQLVQSGAEVKKPGSSVKVSCKASGGTFSSYSISWVRQAPGQGLEWMGGLAPIFHTPNYAQKFQGRVTITADESTSTAYMELSSLRSEDTAVYYCARVAGAGWGVYGAFDYWGQGTLVTVSS VL: not shown							649		no binding (tested: 0.1 ug/mL)
antibody 3091 (antibody, V domains shown) VH: QMQLVQSGPEVKKPGTSVKVSCKASGFTFSSSAVQWVRQARGQGLEWIGWIVVGSGNANYAQKLQERVSITRDMSTSTAYMELSSLRPEDTAVYYCAAPHCSRTICHDGFDMWGQGTMVTVSS VL: EIVLTQSPGTLSLSPGERATLSCRASQSVRSSYLAWYQQKPGQAPRLLMFVASSRATGIPDRFSGSGSGTDFTLTISRLEPEDFAVYYCQQYDTSPWTFGQGTKVEIK	0.004	0.055	78	~13	0.56	0.03	8	172	
antibody 3995 (antibody, V domains shown) VH: EVQLVQSGAEVKKPGSSVKVSCKASGGTFSMHTIRWVRQAPGQGLEWMGRIIPMLGIVNYAQKFQGRVTISADKSTSTAYMELSSLTSEDTAMYYCAKGSHDVFDIWGQGTMVTVSS VL: not shown	0.057	0.041	2830	667	0.692	0.021	51	135	
